Measurements published in the DeepSol protein solubility set.

Assay: soluble on expression in E. coli; label from the status in PepcDB or PDB records

Row | Sequence | soluble on expression in E. coli
1 | GEVDMTIRGNITYSKNEVLEKDEENQVYSYLYQKGYRVDQVKGLIAEGLFADYDDIRTSPKQEFGTVQPGDIKYKDVNGDGVVNDNDKVAIGATTTPNLVYGIGASFAWKGIDVNVHFQGAGKSTFPIYGKCVYAFSESDWGNIFKDMISDRWVDSETAAKLGLHANENPNATYPRLTYGENKNNQQTSTYWMRDGRYIRLKNLDIGYTLPKSIVNKLHFNNIRIYIAGSNLITWSKFKTWDPETGNPRGEAYPLTKSVTMGLSVNL | not soluble
2 | GFRVFIFIILHFVLTNCIREDMSGCPRDDGGLALKFSYDTNADSRLSTAQGVDRLAVFIFDEKGLFISQVNDSMTSINDDYVMELPYKQGSYQFVAWGGYDKSTYQTSECVPRKTYIDDFFLSVKRQEDNQVTNQPKLLYHGMHDIVELNSKEKTIVLINLKQMTNHIRVIAHNLNQDRSDNIYIEDNNGKYGYDSQFSDDDRITYIPIYEASSEQSNPLIADFNVMRLEKDREPWLRIADKTGTIRYDENLIGKLIGGNPNIDFEHNHDFTIEISFDNYIPVIIKINGWEIVNEEI | not soluble
3 | GGAFTWDTDFNISFNRNKLTKLELQKVYYDAKTADVVNDYVVRNEPGRALGGFYGYISDGVDPETGELMYRDLSGDGKISTSDRTYIGDPNPDFTYGLTNTFSWKGFNLSVFIQGSYGNDIFNASRIETEGMYDGKNQSTKVLNRWKIPGQITNVPKANFKLLNSTYFIEDGSYLRLKDVSLSYNFKGKLLQKWGITRLQPYFTATNLLTWTSYSGMDPEVNQWGNSGTVQGIDWGTYPHSRSYVFGINVEF | not soluble
4 | GGELVLLPAPQIPLIMKIMKKHTPTWVPGVPTLYQKIVEAAERDGISISGVRNSFSGASSLPVETVARWEALTGGLLVEGYGLTETSPIIVGNPMTTDRRPGYVGVPFPDTEIRIANPDNLDETMPDGQEGEVLVRGPQVFSGYLNNPEATAKSFHGQWYRTGDVGIMEEDGFIRLVARIKEVIITGGFNVYPAEVEEVLRNHPDITDATVVGLPRGD | not soluble
5 | GGIYGIGLDITELKRIASMAGRQKRFAERILTRSELDQYYELSEKRKNEFLAGRFAAKEAFSKAFGTGIGRQLSFQDIEIRKDQNGKPYIICTKLSPAAVHVSITHTKEYAAAQVVIERLSS | soluble
6 | GGRALRVLVDMDGVLADFEGGFLRKFRARFPDQPFIALEDRRGFWVSEQYGRLRPGLSEKAISIWESKNFFFELEPLPGAVEAVKEMASLQNTDVFICTSPIKMFKYCPYEKYAWVEKYFGPDFLEQIVLTRDKTVVSADLLIDDRPDITGAEPTPSWEHVLFTACHNQHLQLQPPRRRLHSWADDWKAILDSKRPC | soluble
7 | GGTSNEVAQFLSKENQVIVRMRGLPFTATAEEVVAFFGQHCPITGGKEGILFVTYPDGRPTGDAFVLFACEEYAQNALRKHKDLLGKRYIELFRSTAAEVQQVLNRFSSA | soluble
8 | GHHHHHHHHHHGLVPRGSHMNIQSIETYQVRLPLKTPFVTSYGRLEEKAFDLFVITDEQGNQGFGELVAFEQPDYVQETLVTERFIIQQHLIPLLLTEAIEQPQEVSTIFEEVKGHWMGKAALETAIWDLYAKRQQKSLTEFFGPTRRKIPVGISLGIQEDLPQLLKQVQLAVEKGYQRVKLKIRPGYDVEPVALIRQHFPNLPLMVDANSAYTLADLPQLQRLDHYQLAMIEQPFAADDFLDHAQLQRELKTRICLDENIRSLKDCQVALALGSCRSINLKIPRVGGIHEALKIAAFCQENDLLVWLGGMFESGVGRALNLQFASQPTFSFPGDISATERYFYEDIITEPFILEQGTMTVPQGLGIGVTLSQTNLLKYSQYQKIM | soluble
9 | GHMAKAYKQAGVDIEAGYQAVALMKEHVQKTMRPEVLGGIGGFGGLFDLSALGYRQPVLISGTDGVGTKLKLAFLLDRHDTIGIDCVAMCVNDIIVQGAEPLFFLDYIACGKAVPEKIAAIVKGVADGCVEAGCALIGGETAEMPGMYDEDEYDLAGFAVGVAEKERLITGETIQAGDALVGLPSSGLHSNGYSLVRRIVFEQAKLSLDEIYEPLDVPLGEELLKPTRIYAKLLRSVRERFTIKGMAHITGGGLIENIPRMLPPGIGARIQLGSWPILPIFDFLREKGSLEEEEMFSVFNMGIGLVLAVSPETAAPLVEWLSERGEPAYIIGEVAKGAGVSFAGGGRA | soluble
